Measured values: patent US20210023171A1 (published 2021)
Substitutions are numbered along the chain they refer to. No end group written: not given here.

Assays:
[1] = molecular target: T1, αvβ3 integrin on cells (U87MG glioblastoma cells; K562-αvβ3 cells) (UniProt P06756 31-1048; P05106 27-788); experiment: competition with ^125I-echistatin on U87MG cells; Cy5.5-labeled peptide
T1 construct: whole, on cells; also called cell surface αvβ3 integrin

[2] = molecular target: αvβ5 integrin (soluble / detergent-solubilized) (UniProt P06756 31-1048; P18084 24-799); experiment: yeast display, flow cytometry
Chain of αvβ5 integrin (soluble / detergent-solubilized) (P06756 31-1048, chain 1 of 2): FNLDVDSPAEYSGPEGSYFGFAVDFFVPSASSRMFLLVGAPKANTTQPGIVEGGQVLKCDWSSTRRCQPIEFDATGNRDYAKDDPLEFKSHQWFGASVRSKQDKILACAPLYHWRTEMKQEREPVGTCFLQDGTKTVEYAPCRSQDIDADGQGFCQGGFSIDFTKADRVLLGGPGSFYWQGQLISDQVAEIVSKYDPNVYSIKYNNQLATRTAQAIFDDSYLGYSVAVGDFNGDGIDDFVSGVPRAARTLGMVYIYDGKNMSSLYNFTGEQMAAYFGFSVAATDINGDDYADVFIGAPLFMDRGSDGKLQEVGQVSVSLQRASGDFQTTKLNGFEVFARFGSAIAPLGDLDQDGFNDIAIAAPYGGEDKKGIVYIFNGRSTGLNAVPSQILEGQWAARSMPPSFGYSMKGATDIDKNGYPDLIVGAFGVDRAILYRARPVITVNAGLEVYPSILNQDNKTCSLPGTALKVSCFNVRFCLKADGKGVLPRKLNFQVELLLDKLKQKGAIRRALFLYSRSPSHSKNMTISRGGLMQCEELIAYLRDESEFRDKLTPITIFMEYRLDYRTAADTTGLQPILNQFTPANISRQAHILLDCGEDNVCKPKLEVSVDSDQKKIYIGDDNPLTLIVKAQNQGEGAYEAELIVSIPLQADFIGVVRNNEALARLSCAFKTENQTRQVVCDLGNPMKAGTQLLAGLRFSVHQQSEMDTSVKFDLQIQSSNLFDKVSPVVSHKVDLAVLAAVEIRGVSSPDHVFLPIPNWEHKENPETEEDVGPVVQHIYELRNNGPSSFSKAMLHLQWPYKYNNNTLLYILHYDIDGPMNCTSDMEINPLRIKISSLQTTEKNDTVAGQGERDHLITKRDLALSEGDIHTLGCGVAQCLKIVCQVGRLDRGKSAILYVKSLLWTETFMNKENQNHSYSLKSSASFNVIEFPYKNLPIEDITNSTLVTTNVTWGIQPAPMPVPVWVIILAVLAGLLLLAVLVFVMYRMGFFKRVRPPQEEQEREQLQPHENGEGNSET
Chain of αvβ5 integrin (soluble / detergent-solubilized) (P18084 24-799, chain 2 of 2): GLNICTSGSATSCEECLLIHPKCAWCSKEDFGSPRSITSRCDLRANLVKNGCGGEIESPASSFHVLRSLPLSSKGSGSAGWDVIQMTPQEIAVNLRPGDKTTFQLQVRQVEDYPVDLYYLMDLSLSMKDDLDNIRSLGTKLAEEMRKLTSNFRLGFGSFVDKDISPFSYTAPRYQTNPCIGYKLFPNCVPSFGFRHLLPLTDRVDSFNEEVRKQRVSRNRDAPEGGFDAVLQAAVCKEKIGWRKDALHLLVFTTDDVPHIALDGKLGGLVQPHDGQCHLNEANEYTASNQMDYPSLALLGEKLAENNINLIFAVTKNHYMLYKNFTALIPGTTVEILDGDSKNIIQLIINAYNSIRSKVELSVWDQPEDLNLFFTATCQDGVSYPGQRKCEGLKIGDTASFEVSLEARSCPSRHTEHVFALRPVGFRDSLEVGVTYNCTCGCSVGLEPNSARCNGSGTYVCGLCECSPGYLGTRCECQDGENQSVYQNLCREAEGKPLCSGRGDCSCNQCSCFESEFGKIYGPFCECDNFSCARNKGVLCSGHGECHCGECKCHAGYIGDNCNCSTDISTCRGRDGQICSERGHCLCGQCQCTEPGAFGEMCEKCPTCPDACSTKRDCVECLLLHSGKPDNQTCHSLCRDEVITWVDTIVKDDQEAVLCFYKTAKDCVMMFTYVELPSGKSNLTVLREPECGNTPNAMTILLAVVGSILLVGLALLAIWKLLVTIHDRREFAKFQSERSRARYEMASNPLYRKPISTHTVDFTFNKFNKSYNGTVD

[3] = molecular target: T1, αvβ3 integrin on cells (U87MG …); experiment: competition with ^125I-echistatin on U87MG cells (also express αvβ5, α5β1); unlabeled peptide
[4] = molecular target: T1, αvβ3 integrin on cells (U87MG …); experiment: competing off ^125I-echistatin, U87MG cells
[5] = molecular target: T2, αvβ3 integrin (soluble / detergent-solubilized) (UniProt P06756 31-1048; P05106 27-788); experiment: yeast display, flow cytometry, 50 nM integrin, gross estimate
T2 construct: also called integrin αvβ3; soluble αvβ3 integrin
T2 sequence (P06756 31-1048, chain 1 of 2): as the sequence (P06756 31-1048, chain 1 of 2) above
T2 sequence (P05106 27-788, chain 2 of 2): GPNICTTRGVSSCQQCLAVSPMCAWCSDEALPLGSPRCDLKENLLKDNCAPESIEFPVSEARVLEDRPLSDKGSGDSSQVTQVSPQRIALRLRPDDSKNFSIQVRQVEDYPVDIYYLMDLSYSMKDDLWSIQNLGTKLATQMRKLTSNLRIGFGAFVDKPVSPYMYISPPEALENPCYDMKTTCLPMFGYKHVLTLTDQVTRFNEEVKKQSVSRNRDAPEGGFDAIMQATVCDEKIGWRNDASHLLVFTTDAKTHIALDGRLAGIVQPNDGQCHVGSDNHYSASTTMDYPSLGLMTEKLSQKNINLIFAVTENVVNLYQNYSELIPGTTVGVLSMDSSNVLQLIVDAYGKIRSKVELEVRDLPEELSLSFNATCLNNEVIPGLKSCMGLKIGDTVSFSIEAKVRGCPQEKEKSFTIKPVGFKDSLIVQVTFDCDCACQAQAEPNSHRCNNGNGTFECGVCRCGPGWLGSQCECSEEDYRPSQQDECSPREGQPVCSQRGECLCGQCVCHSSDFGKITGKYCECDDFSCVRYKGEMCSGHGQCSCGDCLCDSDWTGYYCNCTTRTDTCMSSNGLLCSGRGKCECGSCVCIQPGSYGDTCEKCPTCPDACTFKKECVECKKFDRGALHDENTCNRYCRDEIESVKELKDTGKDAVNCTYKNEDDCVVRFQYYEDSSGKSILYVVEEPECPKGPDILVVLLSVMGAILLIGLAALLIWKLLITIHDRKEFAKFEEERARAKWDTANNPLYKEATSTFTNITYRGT

[6] = molecular target: T1, αvβ3 integrin on cells (U87MG …); experiment: direct equilibrium titration on U87MG cells, anti-His flow cytometry
[7] = molecular target: T1, αvβ3 integrin on cells (U87MG …); experiment: cell-based or functional assay
[8] = molecular target: T1, αvβ3 integrin on cells (U87MG …); experiment: direct equilibrium titration on K562-αvβ3 cells, anti-His flow cytometry
[9] = molecular target: T3, αiibβ3 integrin on K562 cells stably transfected with αiibβ3 (UniProt P08514 32-1039; P05106 27-788); experiment: titration on K562-αiibβ3 cells up to 5 µM, not saturated
T3 construct: whole, on cells; also called K562-αiibβ3; K562-αiiβ3

T1 sequence (P06756 31-1048, chain 1 of 2): as the sequence (P06756 31-1048, chain 1 of 2) above
T1 sequence (P05106 27-788, chain 2 of 2): as the sequence (P05106 27-788, chain 2 of 2) above

Binder: {Cy5.5}-GCTIGRGDWAPSECSQDSDCLAGCVCGPNGFCG (cysteine pairing not given here) [Cy5.5-labeled Miniprotein 1.5B]
- IC50 [1]: 6.4 nM

Binder: GCLAGLSGPCLGQQVPCCDPAATCYCYGRGDNDLRCYCR (ends and bridges not checked; cysteine pairing not given here) [AgRP 7C loop 1 clone 1-3 (yeast-displayed)]
- binding result [2]: no binding (tested: 50 nM)

Binder: GCVTGRGDSPASSCSQDSDCLAGCVCGPNGFCG (also called FN-RGD2; RGD-EETI #3) [Loop-grafted FN-RGD (synthetic, soluble)]
- IC50 [3]: 370 nM

Binder: {Cy5.5}-GCPRPRGDNPPLTCSQDSDCLAGCVCGPNGFCG (cysteine pairing not given here) [Cy5.5-labeled Miniprotein 2.5F]
- IC50 [1]: 3.4 nM

B1: Miniprotein 2.5F (synthetic, soluble) (peptide)
chain: GCPRPRGDNPPLTCSQDSDCLAGCVCGPNGFCG
notes: also called knottin peptide 2.5F; RGD-miniprotein 2.5F
- IC50 [3]: 26 nM

Binder: GCVRLHESCLGQQVPCCDPAATCYCQYRGDGMKHCYCR (ends and bridges not checked; cysteine pairing not given here) [3F (synthesized Mini-RGD-AgRP peptide)]
- IC50 [4]: 880 nM

Binder: GCRPLGDAGCLGQQVPCCDPAATCYCYGRGDNDLRCYCR (ends and bridges not checked; cysteine pairing not given here) [AgRP 7C loop 1 clone 1-2 (yeast-displayed)]
- binding result [2]: no binding (tested: 50 nM)

Binder: GCPQGRGDWAPTSCKQDSDCRAGCVCGPNGFCG [2.5D (yeast-displayed EETI-based variant)]
- Kd [5]: ~50 nM

Binder: {Cy5.5}-GCPQGRGDWAPTSCSQDSDCRAGCVCGPNGFCG (cysteine pairing not given here) [Cy5.5-labeled Miniprotein 2.5D]
- IC50 [1]: 4.2 nM

Binder: GCVRLHESCEWGRGGDCCDPAATCYCYGRGDNDLRCYCR (ends and bridges not checked; cysteine pairing not given here) [AgRP 7C loop 2 clone 2-4 (yeast-displayed)]
- binding result [2]: no binding (tested: 50 nM)

Binder: GCVRLHESCLGQQVPCCTSKQHHCYCYGRGDNDLRCYCR [AgRP 7C loop 3 clone 3-6 (yeast-displayed)]
- binding result [2]: no binding (tested: 50 nM)

Binder: GCDLYGSHDCLGQQVPCCDPAATCYCYGRGDNDLRCYCR (ends and bridges not checked; cysteine pairing not given here) [AgRP 7C loop 1 clone 1-6 (yeast-displayed)]
- binding result [2]: no binding (tested: 50 nM)

Binder: GCASGSGDPCLGQQVPCCDPAATCYCYGRGDNDLRCYCR (ends and bridges not checked; cysteine pairing not given here) [AgRP 7C loop 1 clone 1-1 (yeast-displayed)]
- binding result [2]: no binding (tested: 50 nM)

Binder: GCVRLHESCGSWGTLACCDPAATCYCYGRGDNDLRCYCR (ends and bridges not checked; cysteine pairing not given here) [AgRP 7C loop 2 clone 2-5 (yeast-displayed)]
- binding result [2]: no binding (tested: 50 nM)

Binder: GCVRLHESCLGQQVPCCSRSDAHCYCYGRGDNDLRCYCR (ends and bridges not checked; cysteine pairing not given here) [AgRP 7C loop 3 clone 3-2 (yeast-displayed)]
- binding result [2]: no binding (tested: 50 nM)

Binder: GCVRLHESCLGQQVPCCDPAATCYCESRGDVVRKCYCR (ends and bridges not checked; cysteine pairing not given here) [6F (synthesized Mini-RGD-AgRP peptide)]
- IC50 [4]: 410 nM

Binder: GCVRLHESCGGSVGVECCDPAATCYCYGRGDNDLRCYCR (ends and bridges not checked; cysteine pairing not given here) [AgRP 7C loop 2 clone 2-1 (yeast-displayed)]
- binding result [2]: no binding (tested: 50 nM)

Binder: GCVRLHESCDPRVGVRCCDPAATCYCYGRGDNDLRCYCR (ends and bridges not checked; cysteine pairing not given here) [AgRP 7C loop 2 clone 2-2 (yeast-displayed)]
- binding result [2]: no binding (tested: 50 nM)

Binder: GCVRLHESCLGQQVPCCQGREQSCYCYGRGDNDLRCYCR [AgRP 7C loop 3 clone 3-4 (yeast-displayed)]
- binding result [2]: no binding (tested: 50 nM)

Binder: GCVRLHESCLGQQVPCCGTPKPECYCYGRGDNDLRCYCR (ends and bridges not checked; cysteine pairing not given here) [AgRP 7C loop 3 clone 3-1 (yeast-displayed)]
- binding result [2]: no binding (tested: 50 nM)

Binder: {Cy5.5}-GCVTGRGDSPASSCSQDSDCLAGCVCGPNGFCG (cysteine pairing not given here, also called Cy5.5-labeled FN-RGD) [Cy5.5-labeled loop-grafted FN-RGD]
- IC50 [1]: 33.9 nM

Binder: GCIASGLFGCLGQQVPCCDPAATCYCYGRGDNDLRCYCR (ends and bridges not checked; cysteine pairing not given here) [AgRP 7C loop 1 clone 1-5 (yeast-displayed)]
- binding result [2]: no binding (tested: 50 nM)

Binder: GCVRLHESCWGSILGHCCDPAATCYCYGRGDNDLRCYCR (ends and bridges not checked; cysteine pairing not given here) [AgRP 7C loop 2 clone 2-6 (yeast-displayed)]
- binding result [2]: no binding (tested: 50 nM)

Binder: GCTIGRGDWAPSECKQDSDCLAGCVCGPNGFCG [1.5B (yeast-displayed EETI-based variant)]
- Kd [5]: ~50 nM

Binder: GCHVGRGDWAPEECKQDSDCQAGCVCGPNGFCG [2.5A (yeast-displayed EETI-based variant)]
- Kd [5]: ~50 nM

Binder: GCTIGRGDWAPSECSQDSDCLAGCVCGPNGFCG (also called RGD-miniprotein 1.5B) [Miniprotein 1.5B (synthetic, soluble)]
- IC50 [3]: 13 nM

B2: recombinant engineered AgRP peptide 6C (FLAG and hexahistidine tagged) (peptide)
chain: DYKDDDDKGCVRLHESCLGQQVPCCDPAATCYCTGRGDEKLRCYCRHHHHHH
- Kd [6]: 13 nM
- adhesion (IC50; nM) of K562-αvβ3 cells to vitronectin-coated wells [7]: 650 nM
- Kd [8]: 15 nM
- Kd [9]: > 100 nM

B3: recombinant engineered AgRP peptide 7J (FLAG and hexahistidine tagged) (peptide)
chain: B2 chain with T34E, E39R, K40D, L41M, R42K
notes: also called 7J (6B); 6B
- Kd [6]: 8.3 nM
- adhesion (IC50; nM) of K562-αvβ3 cells to vitronectin-coated wells [7]: 200 nM
- Kd [8]: 16 nM
- Kd [9]: > 100 nM

B4: recombinant engineered AgRP peptide 7E (FLAG and hexahistidine tagged) (peptide)
chain: B2 chain with T34V, E39D, K40N, R42K
- Kd [6]: 1.4 nM
- adhesion (IC50; nM) of K562-αvβ3 cells to vitronectin-coated wells [7]: 9.9 nM
- Kd [8]: 1.6 nM
- Kd [9]: > 100 nM

Binder: GCVRLHESCLGQQVPCCSGLGNRCYCYGRGDNDLRCYCR (ends and bridges not checked; cysteine pairing not given here) [AgRP 7C loop 3 clone 3-3 (yeast-displayed)]
- binding result [2]: no binding (tested: 50 nM)

Binder: GCVRLHESCADTLMAACCDPAATCYCYGRGDNDLRCYCR (ends and bridges not checked; cysteine pairing not given here) [AgRP 7C loop 2 clone 2-3 (yeast-displayed)]
- binding result [2]: no binding (tested: 50 nM)

Binder: GCVRLHESCLGQQVPCCTVTNSRCYCYGRGDNDLRCYCR [AgRP 7C loop 3 clone 3-5 (yeast-displayed)]
- binding result [2]: no binding (tested: 50 nM)

Binder: GCVRLHESCLGQQVPCCDPAATCYCVERGDGNRRCYCR (ends and bridges not checked; cysteine pairing not given here) [6E (synthesized Mini-RGD-AgRP peptide)]
- IC50 [4]: 130 nM

Binder: QCESGPCCRNCKFLKEGTICKRARGDDMDDYCNGKTCDCPRNPHKGPAT (ligand, ends and bridges not checked; also: Cy5.5-labeled, site not given here) [Cy5.5-labeled echistatin]
- IC50 [1]: 2.6 nM

Binder: GCRSASVGGCLGQQVPCCDPAATCYCYGRGDNDLRCYCR (ends and bridges not checked; cysteine pairing not given here) [AgRP 7C loop 1 clone 1-4 (yeast-displayed)]
- binding result [2]: no binding (tested: 50 nM)
